# Data: patent publication US20110286916A1 (published 2011)
# Numbering of substitutions follows the chain as printed.
# B1: N1wc175 (scFv, V domains shown)
# VH: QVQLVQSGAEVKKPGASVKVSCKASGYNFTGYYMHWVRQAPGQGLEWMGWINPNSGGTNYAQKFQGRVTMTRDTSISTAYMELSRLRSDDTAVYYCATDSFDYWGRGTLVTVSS
# VL: QSVLTQPPSASGTPGQRVTISCSGSRSSIGSNTVSWYQQLPGTAPKLIIYTNNQRPSGVPDRFSGSKSGTSATLAISGLQSEDEADYYCASWDDSLNDYVFGVGTKVTVL
# notes: phage scFv
# B2: N1wc202 (scFv, V domains shown)
# VH: EVQLVQSGAEVKKPGASVKVSCKASGYNFTGYYMHWVRQAPGQGLEWMGWINPNSGGTNYAQKFQGRVTMTRDTSISTAYMELSRLRSDDTAVYYCATDSFDYWGRGTLVTVSS
# VL: SYELTQPPSVSGTPGQRVTISCSGSSSNIESNAVHWYQHLPGRAPKLLIFSHNQRPSGVPARFSGSKSGTSASLAISGLQSEDEADYYCAAWDDSLSGYVFASGTKLTVL
# notes: phage scFv
# B3: N1wc160 (scFv, V domains shown)
# VH: B2 VH with E1Q, V5Q, Q6E, L109M
# VL: SYVLTQPPSASGTPGQRVTISCSGSSSNIGSNTVHWYQQLPETAPKLLIYTNNQRPSGVPDRFSGSKSGTSASLAISGLQSEDEADYYCASWDDSLKAYVFGTRTKLTVL
# notes: phage scFv
# B4: N1wc520 (scFv, V domains shown)
# VH: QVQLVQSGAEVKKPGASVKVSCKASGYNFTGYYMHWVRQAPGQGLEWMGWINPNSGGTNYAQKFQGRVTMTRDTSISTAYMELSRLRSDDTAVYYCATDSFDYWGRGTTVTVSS
# VL: B2 VL with E3V, L107V
# notes: phage scFv
# B5: N1wc625 (scFv, V domains shown)
# VH: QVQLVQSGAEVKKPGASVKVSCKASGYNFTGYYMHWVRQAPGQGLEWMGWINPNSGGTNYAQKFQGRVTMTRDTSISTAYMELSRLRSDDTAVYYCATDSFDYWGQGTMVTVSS
# VL: QSVLTQPPSASGTPGQRVTISCSGGRSNIGTNYVYWYQKLPGTAPKSLIYTTNQRPSGVPDRFSGSKAGTSASLAISGLRSEDEGDYYCASWDESLNGVVFGGGTKVTVL
# notes: phage scFv
# B6: N1wc13 (scFv, V domains shown)
# VH: B2 VH with E1Q, D73E, L109M
# VL: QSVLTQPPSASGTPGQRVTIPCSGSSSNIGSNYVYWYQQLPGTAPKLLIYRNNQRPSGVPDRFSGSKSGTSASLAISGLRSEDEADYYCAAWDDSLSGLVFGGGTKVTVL
# notes: phage scFv
# B7: hN1S3-184 (scFv, V domains shown)
# VH: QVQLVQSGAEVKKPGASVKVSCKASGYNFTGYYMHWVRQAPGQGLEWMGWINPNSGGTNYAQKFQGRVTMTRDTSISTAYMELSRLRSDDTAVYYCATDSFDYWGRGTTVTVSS
# VL: QSVLTQPPSASGTPGQRVTISCSGSSSNIGGNYVYWYQQLPGTAPKLLIYRSNQRPSGVPDRFSGSKSGTSASLAISGLRSEDEADYYCAAWDDSLHGVIFGGGTKLTVL
# notes: phage scFv
# B8: N1wc130 (scFv, V domains shown)
# VH: B2 VH with E1Q, V5Q, S88P, R106K, L109M
# VL: QAVLTQPSSVSGAPGQRVTISCTGTGSNIGAGYDVHWYQQLPGTAPKLLIYANTNRPSGVPDRFSGSKSGTSASLAITGLQAEDEADYYCQSYDSSLSGSVFGGGTKVTVL
# notes: phage scFv
# B9: N1wc79 (scFv, V domains shown)
# VH: B2 VH with E1Q, V5Q, R106Q, L109M
# VL: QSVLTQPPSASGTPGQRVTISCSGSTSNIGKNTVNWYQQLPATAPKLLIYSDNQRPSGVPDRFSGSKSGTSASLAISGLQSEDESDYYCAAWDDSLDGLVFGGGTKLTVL
# notes: phage scFv
# B10: N1wc225 (scFv, V domains shown)
# VH: B2 VH with E1Q, V5Q, L109M
# VL: B8 VL with A2S, L4V, S8P, T25S, G26S, A52G, T54S, V108L
# B11: hN1S3-035 (scFv, V domains shown)
# VH: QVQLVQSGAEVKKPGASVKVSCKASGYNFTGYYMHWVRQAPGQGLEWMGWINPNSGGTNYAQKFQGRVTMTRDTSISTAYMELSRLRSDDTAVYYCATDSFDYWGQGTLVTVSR
# VL: B8 VL with T25S, G26S, A52G, T54S
# notes: phage scFv
# B12: hN1S3-147 (scFv, V domains shown)
# VH: QVQLVQSGPEVKKPGTSVKVSCKASGFTFTSSAVQWVRQARGQRLEWIGWIVVGSGNTNYAQKFQERVTITRDMSTSTAYMELSSLRSEDTAVYYCVADTVYWGKGTLVTVSS
# VL: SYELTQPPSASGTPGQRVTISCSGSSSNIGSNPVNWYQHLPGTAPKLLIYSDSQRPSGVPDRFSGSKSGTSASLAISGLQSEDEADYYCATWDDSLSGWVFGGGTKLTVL
# notes: phage scFv
# B13: hN1S3-082 (scFv, V domains shown)
# VH: B12 VH with K105R
# VL: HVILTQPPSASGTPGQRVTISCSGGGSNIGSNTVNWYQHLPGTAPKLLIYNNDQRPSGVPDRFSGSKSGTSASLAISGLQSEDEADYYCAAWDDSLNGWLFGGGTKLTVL
# notes: phage scFv
# Target: T1, human full-length Notch1 with C-terminal FLAG tag, stably expressed on 293 FlpIn (TREx) cells (human, UniProt P46531 19-2555)
# T1 construct: tetracycline/doxycycline-induced expression from pcDNA5/FRT/TO-HN1+FLAG; also called hN1; 293_N1
# Experiment: FACS, phage scFv
row,Binder,binding result
1,B1,binds
2,B2,binds
3,B3,binds
4,B4,binds
5,B5,binds

# Target: T2, human full-length Notch3 with C-terminal FLAG tag, stably expressed on 293 FlpIn (TREx) cells (human, UniProt Q9UM47 40-2321)
# T2 construct: whole, on cells; made by the same strategy as the Notch1 line; also called 293-N3; hN3
# Experiment: FACS, phage scFv
row,Binder,binding result
1,B6,binds
2,B7,binds
3,B8,binds
4,B9,binds
5,B10,binds
6,B11,binds
7,B12,binds
8,B13,binds
